Experimental findings from patent US20230141177A1 are described below.

Positions count from the first letter of the chain named. Numbers in names are those of the source.

B1: parental antibody, PMN310 humanized antibody variant VH2/Vk5 (human IgG4 S241P / kappa) (antibody, V domains shown)
VH: QVQLVQSGAEVKKPGASVKMSCKASGYSFTSYWINWVKQRPGQGLEWIGDVHPGRGVSTYNAKFKSRATLTLDTSISTAYMELSSLRSEDTAVYYCSRSHGNTYWFFDVWGQGTTVTVSS
VL: DVLMTQSPLSLPVTLGQPASISCRSSQSIVHSNGNTYLEWYQQRPGQSPRLLIYKVSNRFSGVPDRFSGSGSGTDFTLKISRVEAEDVGVYYCFQGSHVPFTFGQGTKLEIKR
B2: Clone 5 (affinity matured VH with parental Vk, human IgG4 S241P / kappa) (antibody, V domains shown)
VH: B1 VH with S97A, S99G, H100A, G101L, N102S, T103P
VL: B1 VL
B3: Clone 4 (affinity matured VH with parental Vk, human IgG4 S241P / kappa) (antibody, V domains shown)
VH: B1 VH with S97A, S99V, H100S, G101P, N102T, T103G
VL: B1 VL
B4: Clone 14 (affinity matured VH with parental Vk, human IgG4 S241P / kappa) (antibody, V domains shown)
VH: B1 VH with S97A, R98K, H100D, G101A, N102S, T103G
VL: B1 VL

In the first experiment the target is AβO in the low molecular weight (LMW) fraction of pooled soluble human AD brain extract (~8 kDa to ~70 kDa) (human) (UniProt P05067). The experiment in a line: SPR; BRU on LMW fraction divided by BRU on HMW fraction; Study 1.
Turning to B1, the LMW/HMW ratio came to 1.

Turning to B2, the LMW/HMW ratio stood at 1.

Turning to B3, the LMW/HMW ratio worked out at 1.32.

Turning to B4, the LMW/HMW ratio was found to be 1.1.

The target is the same in a further experiment. The experiment in a line: SPR; BRU on LMW fraction divided by BRU on HMW fraction; Study 2.
For the molecule B1, the LMW/HMW ratio was found to be 1.31.

With B2, the LMW/HMW ratio came out at 1.43.

With B3, the LMW/HMW ratio worked out at 1.55.

B4: the LMW/HMW ratio turned out to be 1.47.

For a further experiment the target is unchanged. The experiment in a line: SPR; BRU on LMW fraction divided by BRU on HMW fraction; Study 3.
Turning to B1, the LMW/HMW ratio came out at 1.52.

Regarding B2, the LMW/HMW ratio came out at 1.2.

For B3, the LMW/HMW ratio came out at 1.54.

For the molecule B4, the LMW/HMW ratio came to 1.45.

In another experiment the target is Aβ aggregates in the high molecular weight (HMW) fraction of pooled soluble human AD brain extract (>70 kDa to ~700 kDa) (human) (UniProt P05067). Kind of experiment: SPR, immobilized antibody, brain extract fraction at 100 µg/ml injected; Study 1.
B1 registered a Binding to HMW (BRU) of 27 BRU.

As to B2, the Binding to HMW (BRU) is 15 BRU.

B3 had a Binding to HMW (BRU) of 21 BRU.

B4 returned a Binding to HMW (BRU) of 16 BRU.

In another experiment the target is AβO in the low molecular weight (LMW) fraction of pooled soluble human AD brain extract (~8 kDa to ~70 kDa) (human) (UniProt P05067). Described as above.
B1 displayed a Binding to LMW (BRU) of 27 BRU.

B2 registered a Binding to LMW (BRU) of 15 BRU.

The molecule B3 registered a Binding to LMW (BRU) of 28 BRU.

Consider B4, for which the Binding to LMW (BRU) is 18 BRU.

For another experiment, the target named is Aβ aggregates in the high molecular weight (HMW) fraction of pooled soluble human AD brain extract (>70 kDa to ~700 kDa) (human) (UniProt P05067). Kind of experiment: SPR, immobilized antibody, brain extract fraction at 100 µg/ml injected; Study 2.
B1 returned a Binding to HMW (BRU) of 13.5 BRU.

As for B2, the Binding to HMW (BRU) came out at 6.57 BRU.

B3 gave a Binding to HMW (BRU) of 11.2 BRU.

As to B4, the Binding to HMW (BRU) worked out at 7.55 BRU.

Another experiment has as its target AβO in the low molecular weight (LMW) fraction of pooled soluble human AD brain extract (~8 kDa to ~70 kDa) (human) (UniProt P05067). The experiment is described as above.
The molecule B1 yielded a Binding to LMW (BRU) of 17.7 BRU.

Regarding B2, the Binding to LMW (BRU) was 9.42 BRU.

For B3, the Binding to LMW (BRU) came to 17.3 BRU.

B4 showed a Binding to LMW (BRU) of 11.1 BRU.

Another experiment has as its target Aβ aggregates in the high molecular weight (HMW) fraction of pooled soluble human AD brain extract (>70 kDa to ~700 kDa) (human) (UniProt P05067). Kind of experiment: SPR, immobilized antibody, brain extract fraction at 100 µg/ml injected; Study 3.
The molecule B1 had a Binding to HMW (BRU) of 5 BRU.

On to B2, for which the Binding to HMW (BRU) amounted to 7.88 BRU.

As to B3, the Binding to HMW (BRU) is 6.77 BRU.

B4: the Binding to HMW (BRU) was 4.38 BRU.

For a further experiment, the target named is AβO in the low molecular weight (LMW) fraction of pooled soluble human AD brain extract (~8 kDa to ~70 kDa) (human) (UniProt P05067). Described as above.
Consider B1, for which the Binding to LMW (BRU) was determined as 7.6 BRU.

As to B2, the Binding to LMW (BRU) came out at 9.45 BRU.

B3: the Binding to LMW (BRU) was 10.1 BRU.

As for B4, the Binding to LMW (BRU) stood at 6.34 BRU.
